Measurements published in the supplement of paper PMC10724198.
± gives the standard deviation of the averaged measurements.
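Also: PSI is a weighted mean of sequencing reads over stability bins, variants kept only with over 10 reads, mCherry proximal and sfGFP distal, peptide attached via GGGS linker.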

What follows are sequences tested on Saccharomyces cerevisiae (assay: protein stability index of tFT-peptide fusion (C-terminal peptide) (PSI (0-1 scale)); higher = more stable (slower turnover)). Settings: genetic background: doa10 deletion; temperature: 30 C.
Method: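 MPS profiling in S. cerevisiae of the tFT-X12 degron library: putative degron peptides plus stable controls, 12 aa, fused to the C-terminus of a sfGFP-mCherry timer. Cells are FACS-sorted into 8 mCherry/sfGFP bins and deep-sequenced. PSI runs from 0 (unstable) to 1 (stable). Backgrounds are wild type, das1Δ and doa10Δ at 30 °C, and wild type, das1Δ, cdc34-1 and cdc53-1 at 37 °C; 2-3 technical replicates each.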
Sequence AFRRFLLYCRFI has a protein stability index of 0.199 ± 0.019.
AIPRWLALLVAH gave a protein stability index of 0.13 ± 0.018.
Work on ALWRAWLRLRIW yielded a protein stability index of 0.143 ± 0.0041.
Work on AQLVYVITAVRT yielded a protein stability index of 0.291 ± 0.025.
ARLTNYFVEWLS gave a protein stability index of 0.358 ± 0.023.
In the case of ASAYCCMITRLN, the protein stability index is reported as 0.0987 ± 0.011.
Sequence ASGVFSRLVLVS has a protein stability index of 0.173 ± 0.012.
Sequence ASPLRLFIPFLF has a protein stability index of 0.192 ± 0.0066.
AWLWCVCWSIMR was tested, and the protein stability index was 0.373 ± 0.028.
AYFPSQRVHHLM was tested, and the protein stability index was 0.144 ± 0.0018.
CACAVPFLLLFF gave a protein stability index of 0.497 ± 0.028.
For CCSRYLSNLCPI, the protein stability index was 0.657 ± 0.033.
Sequence CDSRIRKIWSYL has a protein stability index of 0.2666 ± 0.0024.
CFFPLFLCTAFC gave a protein stability index of 0.387 ± 0.0062.
With CFSVFSVLCFFV the protein stability index was 0.415 ± 0.035.
CFVFYALFGFAV gave a protein stability index of 0.252 ± 0.0068.
With CLISILLFLCFT the protein stability index was 0.376 ± 0.021.
CLLVCCCFYRNV showed a protein stability index of 0.371 ± 0.015.
For CLVKIVIFFLFS, the protein stability index was 0.191 ± 0.012.
In the case of CNIYVLIIIKKY, the protein stability index is reported as 0.157 ± 0.0082.
CPPPCPLYMLLC was tested, and the protein stability index was 0.163 ± 0.017.
Work on CRLLYYIPCGLF yielded a protein stability index of 0.359 ± 0.022.
CRRLCGWLFVCV showed a protein stability index of 0.396 ± 0.0074.
With CSFELSVCLMLR the protein stability index was 0.557 ± 0.015.
CSLRLCVRGAIV showed a protein stability index of 0.586 ± 0.022.
In the case of CSSSNRRRYFVL, the protein stability index is reported as 0.115 ± 0.022.
With CVARWPRPAGSS the protein stability index was 0.641 ± 0.017.
Work on CVFFPFLGVCYV yielded a protein stability index of 0.288 ± 0.01.
CVGRPIALAVRT showed a protein stability index of 0.338 ± 0.025.
For CVLLRPGFLVLV, the protein stability index was 0.2144 ± 0.0018.
With CVYGILLLVDVR the protein stability index was 0.0714 ± 0.034.
CWDNTLKTMRQM gave a protein stability index of 0.307 ± 0.015.
With CWLFCACFVRLV the protein stability index was 0.0691 ± 0.0032.
CYFLFFLSYSLE was tested, and the protein stability index was 0.194 ± 0.039.
Work on CYTGYMYKLLVG yielded a protein stability index of 0.2458 ± 0.00076.
DFHLPWPVALVW showed a protein stability index of 0.188 ± 0.0067.
DFIVVIRFIQII gave a protein stability index of 0.1447 ± 0.001.
For DFVYFPPIPVSS, the protein stability index was 0.218 ± 0.0036.
DISWVFVLLIFF was tested, and the protein stability index was 0.318 ± 0.023.
In the case of DMWYLLWRVCYI, the protein stability index is reported as 0.37 ± 0.02.
Sequence EGALSGGGKTSG has a protein stability index of 0.636 ± 0.014.
EKIIVAVLFVVP was tested, and the protein stability index was 0.281 ± 0.0051.
ENKGGNQKRRKK showed a protein stability index of 0.646 ± 0.014.
EQMRRYILVSYV showed a protein stability index of 0.198 ± 0.0082.
With ERFRLYFRPGIF the protein stability index was 0.296 ± 0.03.
With ESCWVSRVGVCR the protein stability index was 0.588 ± 0.0086.
EVTRMLRVVREI was tested, and the protein stability index was 0.322 ± 0.0093.
EWLITLRKCGVA was tested, and the protein stability index was 0.397 ± 0.0075.
In the case of EWRPYKRNKQSS, the protein stability index is reported as 0.223 ± 0.016.
Work on EWVGIFRGVSVF yielded a protein stability index of 0.224 ± 0.02.
For FAKRVARVAREH, the protein stability index was 0.17 ± 0.024.
In the case of FALFLFFGPLIV, the protein stability index is reported as 0.335 ± 0.019.
In the case of FASFLFFCYIIF, the protein stability index is reported as 0.24 ± 0.022.
Sequence FCCFFPFLWRVF has a protein stability index of 0.317 ± 0.009.
FCFYLLFLGFTR showed a protein stability index of 0.37 ± 0.01.
FCLFFFPSLFFF gave a protein stability index of 0.333 ± 0.012.
FCRLCYLLLFCC gave a protein stability index of 0.211 ± 0.0056.
For FELVWLCIIGAL, the protein stability index was 0.106 ± 0.0082.
Work on FFCFFWLFHWFG yielded a protein stability index of 0.4643 ± 0.0022.
FFCSLIISRFLL showed a protein stability index of 0.139 ± 0.012.
